Measurements taken from patent EP4417623A1 (Fundació Institut de Recerca Contra la Leucèmia Josep …, dated 2024).
Where no end group is shown, it is not given here.

Experiments:
[1] = target: T1, Peptide 3: SSMEDYVNFN-C (not fully specified; printed as SSMEDYVNFN-C); assay: peptide ELISA titration, OD450
T1 peptide: SSMEDYVNFNC

[2] = target: T2, Peptide 4: SMEDYVNFNF-C (not fully specified; printed as SMEDYVNFNF-C); assay: peptide ELISA titration, OD450
T2 peptide: SMEDYVNFNFC

[3] = target: T3, CCR9 peptide #1 MADDYGSESTSSMEDYVNFNF-C (human, extra C-terminal Cys for BSA conjugation (coated as non-conjugated or BSA-conjugated peptide)); assay: ELISA screening against the immunisation peptide
T3 construct: This is the immunisation peptide; It was conjugated to BSA for the ELISA screenings; also called MADDY peptide; complete antigen peptide
T3 peptide: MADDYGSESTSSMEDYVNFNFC

binding result [1]: binds | binding result [2]: binds | binding result [3]: binds
B1: anti-CCR9 antibody clone 115 (antibody, V domains shown)
VH: QVQLKQSGPELVKPGTSVRVSCTASGYSFTDYIIYWVKQSHGRSLEWIGYIDPNNYNTRYSQKFKGKATLTVDKSSTSAFMHLNSLTSDDSAVYYCARDVYWGQGTTLTVSS
VL: DVVMTQTPLSLTVSLGDQASISCRSSQSLVHSNGKTYLQWYLQKPGQSPKLLIYKVSNRFSGVPDRFSGSGSGTDFTLKISRVEAEDLGVYFCAQSTHVWTFGGGTKLEIKR
notes: Murine monoclonal antibody, isotype IgG1; It was tested as hybridoma supernatant in the FACS screening and as Protein A/G purified antibody in the ELISA
